Experimental data taken from US7083932 (EUROSCREEN S A, dated 2006).

Biological target: orphan receptor ORL1 (Opioid Receptor-Like 1) stably expressed in recombinant CHO(ORL1+) cells
Assay: cell-based or functional assay

Row | Binder | inhibition of forskolin-induced accumulation of cAMP in recombinant CHO(ORL1+) cells, IC50 [nM] | inhibition of forskolin-induced accumulation of cAMP in CHO cells expressing the receptor, IC50 [nM]
1 | FGGFTGARKSARKLANQ | 0.9 | 
2 | YGGFTGARKSARKLANQ [1Tyr analogue of the synthetic heptadecapeptide] |  | 1
